Reference: article PMC4696747 (PLoS ONE, 2015)

What was measured:
[1] = test system: CC(=O)C(=O)O; assay: purified protein; conditions: NADH
[2] = target: T1, rat lactate dehydrogenase A (rLDHA) (Rattus norvegicus, UniProt P04642); assay: SPR (BIAcore T200), steady-state affinity; kinetic fit gives Kd […]; type: binding
T1 construct: gene Ldha; amino acids 1–332 of full-length wild type, untagged, biotinylated

Row | Compound | Km [1] | Kd [2]
1 | rat lactate dehydrogenase A (rLDHA) (Rattus norvegicus) | 530 ± 80 µM | –
2 | NC(=O)C1=CN([C@@H]2O[C@H](COP(=O)(O)OP(=O)(O)OC[C@H]3O[C@@H](n4cnc5c(N)ncnc54)[C@H](O)[C@@H]3O)[C@@H](O)[C@H]2O)C=CC1 [NADH] | – | 6.4 ± 0.3 µM
